The text below walks through data of US20260167721A1 (ABLEXIS, published 2026).

Substitutions are numbered along the chain they refer to.

Assay [1] addresses T1, recombinant human CD3 epsilon/delta heterodimer (human, UniProt P07766 23-126; P04234 22-105).
T1 construct: Recombinant protein in solution (200-50 nM) in the Octet assay; also called hCD3 E/D; human CD3E/D
Description: Octet BLI, mAb on FAB2G sensor, hCD3 E/D 200-50 nM; R^2 0.96.

In assay [2] the target is T2, recombinant human CD3 epsilon/gamma heterodimer (human, UniProt P07766 23-126; P09693 23-116).
T2 construct: Recombinant protein in solution (200-50 nM) in the Octet assay; also called hCD3 E/G
T2 sequence (P07766 23-126, chain 1 of 2): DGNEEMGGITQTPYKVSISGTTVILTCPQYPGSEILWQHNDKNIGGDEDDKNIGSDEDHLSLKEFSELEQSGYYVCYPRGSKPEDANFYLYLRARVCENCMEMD
T2 sequence (P09693 23-116, chain 2 of 2): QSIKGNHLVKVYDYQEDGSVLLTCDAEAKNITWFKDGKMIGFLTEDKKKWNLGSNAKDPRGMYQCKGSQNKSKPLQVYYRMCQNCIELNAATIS
Description: Octet BLI, mAb on FAB2G sensor, hCD3 E/G 200-50 nM; R^2 0.96.

Assay [3] addresses T1, recombinant human CD3 epsilon/delta …. Put plainly: Octet BLI, mAb on FAB2G sensor, hCD3 E/D 200-50 nM; R^2 0.94. For orientation: Biolayer interferometry detects binding as a change in optical thickness at a sensor tip.
Assay [4] has as its target T2, recombinant human CD3 epsilon/gamma …. Description: Octet BLI, mAb on FAB2G sensor, hCD3 E/G 200-50 nM; R^2 0.94.
The target of assay [5] is recombinant CD3 proteins. Put plainly: Octet (BLI), bispecific antibody against recombinant CD3 proteins.
Assay [6] deals with CD3 on effector cells (human Pan-T or PBMC) (human, UniProt P07766 23-207; P04234 22-171; P09693 23-182; P20963 22-164). Description: cell-based or functional assay.
Sequence of CD3 on effector cells (human Pan-T or PBMC) (P07766 23-207, chain 1 of 4): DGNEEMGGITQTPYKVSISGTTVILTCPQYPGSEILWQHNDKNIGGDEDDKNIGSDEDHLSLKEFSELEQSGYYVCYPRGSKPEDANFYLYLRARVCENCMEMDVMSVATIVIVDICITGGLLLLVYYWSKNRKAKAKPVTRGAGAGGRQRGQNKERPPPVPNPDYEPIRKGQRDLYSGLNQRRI
Sequence of CD3 on effector cells (human Pan-T or PBMC) (P04234 22-171, chain 2 of 4): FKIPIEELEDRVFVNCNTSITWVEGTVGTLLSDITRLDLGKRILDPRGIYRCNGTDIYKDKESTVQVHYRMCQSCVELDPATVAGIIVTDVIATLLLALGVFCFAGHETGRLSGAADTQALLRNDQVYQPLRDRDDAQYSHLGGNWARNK
Sequence of CD3 on effector cells (human Pan-T or PBMC) (P09693 23-182, chain 3 of 4): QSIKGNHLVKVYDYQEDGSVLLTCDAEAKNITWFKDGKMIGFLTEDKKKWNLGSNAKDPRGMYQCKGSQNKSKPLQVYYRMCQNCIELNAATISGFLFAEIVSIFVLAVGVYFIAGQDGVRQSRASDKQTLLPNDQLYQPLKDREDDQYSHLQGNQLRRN
Sequence of CD3 on effector cells (human Pan-T or PBMC) (P20963 22-164, chain 4 of 4): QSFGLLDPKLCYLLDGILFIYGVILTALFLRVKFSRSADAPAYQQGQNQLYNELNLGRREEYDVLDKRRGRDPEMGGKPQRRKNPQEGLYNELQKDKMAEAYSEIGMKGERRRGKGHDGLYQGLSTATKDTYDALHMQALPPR
Assay [7] deals with T3, recombinant CD3 proteins (UniProt P07766 23-126).
T3 construct: elsewhere it uses human CD3 E/D and E/G heterodimers
T3 sequence (P07766 23-126): as the sequence (P07766 23-126, chain 1 of 2) above
Description: Octet BLI, recombinant CD3; Full R^2 0.987.

In assay [8] the target is T3, recombinant CD3 proteins. Put plainly: Octet BLI, recombinant CD3; Full R^2 0.9881.
The target of assay [9] is T3, recombinant CD3 proteins. Description: Octet BLI, recombinant CD3; Full R^2 0.9882.
Assay [10] has as its target T3, recombinant CD3 proteins. Description: Octet BLI, recombinant CD3; Full R^2 0.8253.
Assay [11] addresses T3, recombinant CD3 proteins. Description: Octet BLI, recombinant CD3; Full R^2 0.9905.

T1 sequence (P07766 23-126, stated change not applied, chain 1 of 2): as the sequence (P07766 23-126, chain 1 of 2) above
T1 sequence (P04234 22-105, stated change not applied, chain 2 of 2): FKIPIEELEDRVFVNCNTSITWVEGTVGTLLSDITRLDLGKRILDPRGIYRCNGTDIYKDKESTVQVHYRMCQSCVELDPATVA

B1: ABL-CD3-33 (antibody, V domains shown)
VH: EVQLVESGGGLVKPGGSLRLSCAASGFTFSSYSMNWVRQAPGKGLEWVSSISRSSSYIYYADSVKGRFTISRDNAKNSLYLQMNSLRAEDTAVYYCAREPPTLGMDYWGQGTLVTVSS
VL: NFMLTQPHSVSESPGKTVTISCTRSSGSIASNYVQWYQQRPGSSPTTVIYEDNQRPSGVPDRFSGSIDSSSNSASLTISGLKTEDEADYYCQSYYNSNRVFGGGTKLTVL
notes: Chimeric hybridoma mAb: human V, CH1, upper hinge; mouse middle hinge, CH2, CH3
One may read the Kd as the free concentration of one partner at which half of the binding sites on the other are occupied at equilibrium, for simple one-to-one binding. What is called koff is the first-order rate constant of dissociation. By kon is commonly meant a measure of how fast the partners come together. Consider B1, for which, in assay [1], the Kd amounted to 56.2 nM, the Response was 0.33, the koff was determined as 0.0206 s⁻¹ and the kon was determined as 366000 M⁻¹ s⁻¹. Further, in assay [2], the Kd turned out to be 60 nM, the koff worked out at 0.0155 s⁻¹ and the kon came out at 259000 M⁻¹ s⁻¹.

B2: ABL-CD3-29 (antibody, V domains shown)
VH: EVQLVQSGAEVKKPGESLKISCKGSGYSFISYWIAWVRQMPGKGLEWMGIIYPGDSETRYRPSFQGQVTISADKSINTAYLQWSSLKAADTAMYYCARQGAYDGFDIWGQGTMVTVSS
VL: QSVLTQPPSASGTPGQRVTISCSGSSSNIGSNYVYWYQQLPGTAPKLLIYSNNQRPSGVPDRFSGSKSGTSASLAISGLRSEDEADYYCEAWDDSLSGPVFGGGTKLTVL
notes: as for B1
As for B2, in assay [3], the Kd came out at 2.63 nM, the koff came out at 0.000816 s⁻¹ and the kon stood at 310000 M⁻¹ s⁻¹. Moreover, in assay [4], the Kd is 2.5 nM, the Response was 0.44, the koff came out at 0.000852 s⁻¹ and the kon was 341000 M⁻¹ s⁻¹.

B3: Control Humanized anti-CD3 (high affinity) scFv-Fc knob/TM, as bispecific with gemtuzumab (bispecific antibody)
scFv: EVQLVESGGGLVQPGGSLRLSCAASGFTFSTYAMNWVRQAPGKGLEWVGRIRSKYNNYATYYADSVKGRFTISRDDSKNTLYLQMNSLRAEDTAVYYCVRHGNFGDSYVSWFAYWGQGTLVTVSSGKPGSGKPGSGKPGSGKPGSQAVVTQEPSLTVSPGGTVTLTCGSSTGAVTTSNYANWVQQKPGKSPRGLIGGTNKRAPGVPARFSGSLLGGKAALTISGAQPEDEADYYCALWYSNHWVFGGGTKLTVLGGGGSDKTHTCPPCPAPEFEGGPSVFLFPPKPKDTLMISRTPEVTCVVVDVSHEDPEVKFNWYVDGVEVHNAKTKPREEQYNSTYRVVSVLTVLHQDWLNGKEYKCKVSNKALPASIEKTISKAKGQPREPQVYTLPPCREEMTKNQVSLWCLVKGFYPSDIAVEWESNGQPENNYKTTPPVLDSDGSFFLYSKLTVDKSRWQQGNVFSCSVMHEALHNHYTQKSLSLSPGK
heavy: EVQLVQSGAEVKKPGSSVKVSCKASGYTITDSNIHWVRQAPGQSLEWIGYIYPYNGGTDYNQKFKNRATLTVDNPTNTAYMELSSLRSEDTAFYYCVNGNPWLAYWGQGTLVTVSSASTKGPSVFPLAPSSKSTSGGTAALGCLVKDYFPEPVTVSWNSGALTSGVHTFPAVLQSSGLYSLSSVVTVPSSSLGTQTYICNVNHKPSNTKVDKRVEPKSCDKTHTCPPCPAPEFEGGPSVFLFPPKPKDTLMISRTPEVTCVVVDVSHEDPEVKFNWYVDGVEVHNAKTKPREEQYNSTYRVVSVLTVLHQDWLNGKEYKCKVSNKALPASIEKTISKAKGQPREPQVCTLPPSREEMTKNQVSLSCAVKGFYPSDIAVEWESNGQPENNYKTTPPVLDSDGSFFLVSKLTVDKSRWQQGNVFSCSVMHEALHNRFTQKSLSLSPGK
light: DIQLTQSPSTLSASVGDRVTITCRASESLDNYGIRFLTWFQQKPGKAPKLLMYAASNQGSGVPSRFSGSGSGTEFTLTISSLQPDDFATYYCQQTKEVPWSFGQGTKVEVKRTVAAPSVFIFPPSDEQLKSGTASVVCLLNNFYPREAKVQWKVDNALQSGNSQESVTEQDSKDSTYSLSSTLTLSKADYEKHKVYACEVTHQGLSSPVTKSFNRGEC
B3: in the assay with recombinant CD3 proteins [5], the Kd was found to be 20.1 nM, the Response was 0.73, the koff was determined as 0.00652 s⁻¹ and the kon came to 325000 M⁻¹ s⁻¹. The “RTCC EC50 (nM), KILR HL-60 T Cell Redirection cytotoxic assay with CD33-expressing target cells” value in assay [6] turned out to be 0.03 nM.

B4: CD3 × CD33-BspAb82 (bispecific antibody)
chain 1: EVQLVESGGGLVKPGGSLRLSCAASGLTFSTYSMNWVRQAPGKCLEWVSSISSSGSYVYYADSVKGRFTMSRDNAKNSLYLQMNSLRAEDTAVYYCARERRELLFDYWGQGTLVTVSSGGGGSGGGGSGGGGSGGGGSNFMLTQPHSVSESPGKTVTISCTRSSGSIASNYVQWYQQRPGSSPTSVIYEDNQRPSGVPDRFSGSIDSSSNSASLTISGLKTEDEADYYCQSYDRSNRVFGCGTKLTVLDKTHTCPPCPAPEFEGGPSVFLFPPKPKDTLMISRTPEVTCVVVDVSHEDPEVKFNWYVDGVEVHNAKTKPREEQYNSTYRVVSVLTVLHQDWLNGKEYKCKVSNKALPASIEKTISKAKGQPREPQVYTLPPCREEMTKNQVSLWCLVKGFYPSDIAVEWESNGQPENNYKTTPPVLDSDGSFFLYSKLTVDKSRWQQGNVFSCSVMHEALHNHYTQKSLSLSPGK
chain 2: B3 heavy
chain 3: B3 light
As for B4, in the assay with recombinant CD3 proteins [7], the Kd was found to be 18.7 nM, the koff amounted to 0.00536 s⁻¹ and the on-rate (kon) is 287000 M⁻¹ s⁻¹.

B5: CD3 × CD33-BspAb81 (bispecific antibody)
chain 1: QVQLQESGPGLVKPSQTLSLTCTVSGGSISSGGYYWSWIRQHPGKCLEWIGYIYYSGSTYYNPSLKSRVTISVDTSKDQFSLKLSSVTAADTAVYYCARERKTSLPFDIWGQGTMVTVSSGGGGSGGGGSGGGGSGGGGSNFMLTQPHSVSESPGKTVTISCTRSSGSIASNYVQWYQQRPGSSPTTVIYEDNQRPSGVPDRFSGSIDSSSNSASLTISGLKTEDEAYYYCQSFDSSNRVFGCGTKLTVLDKTHTCPPCPAPEFEGGPSVFLFPPKPKDTLMISRTPEVTCVVVDVSHEDPEVKFNWYVDGVEVHNAKTKPREEQYNSTYRVVSVLTVLHQDWLNGKEYKCKVSNKALPASIEKTISKAKGQPREPQVYTLPPCREEMTKNQVSLWCLVKGFYPSDIAVEWESNGQPENNYKTTPPVLDSDGSFFLYSKLTVDKSRWQQGNVFSCSVMHEALHNHYTQKSLSLSPGK
chain 2: B3 heavy
chain 3: B3 light
For B5, in the assay with recombinant CD3 proteins [8], the Kd amounted to 69.4 nM, the koff came out at 0.00791 s⁻¹ and the kon stood at 114000 M⁻¹ s⁻¹.

B6: Control Humanized anti-CD3 (low affinity) scFv-Fc knob/TM, as bispecific with gemtuzumab (bispecific antibody)
scFv: B3 scFv with A113D
heavy: B3 heavy
light: B3 light
Consider B6, for which, in the assay with recombinant CD3 proteins [5], the Kd turned out to be 50.3 nM, the Response came out at 0.3, the koff was 0.0121 s⁻¹ and the kon came to 241000 M⁻¹ s⁻¹. In addition, the “RTCC EC50 (nM), KILR HL-60 T Cell Redirection cytotoxic assay with CD33-expressing target cells” value in assay [6] was determined as 1.48 nM.

B7: CD3 × CD33-BspAb67 (bispecific antibody)
chain 1: not shown
chain 2: B3 heavy
chain 3: B3 light
For the molecule B7, in the assay with recombinant CD3 proteins [9], the Kd came to 5.57 nM, the koff worked out at 0.00234 s⁻¹ and the kon was determined as 421000 M⁻¹ s⁻¹.

B8: CD3 × CD33-BspAb70 (bispecific antibody)
chain 1: EVQLVESGGGLVKPGGSLRLSCAASGFTFSSYSMKWVRQAPGKCLEWVSSISSSSSYIYYADSVKGRFTISRDNAKNSLYLQMNSLRAEDTAVYYCARDRGELTLWYWGQGTLVTVSSGGGGSGGGGSGGGGSGGGGSSYELTQPPSVSVSPGQTARITCSGDALPKKYAYWYQQKSGQAPVLVIYEDSKRPSGIPERFSGSSSGTMATLTISGAQVEDEADYYCYSTDSSGNHWVFGCGTKLTVLDKTHTCPPCPAPEFEGGPSVFLFPPKPKDTLMISRTPEVTCVVVDVSHEDPEVKFNWYVDGVEVHNAKTKPREEQYNSTYRVVSVLTVLHQDWLNGKEYKCKVSNKALPASIEKTISKAKGQPREPQVYTLPPCREEMTKNQVSLWCLVKGFYPSDIAVEWESNGQPENNYKTTPPVLDSDGSFFLYSKLTVDKSRWQQGNVFSCSVMHEALHNHYTQKSLSLSPGK
chain 2: B3 heavy
chain 3: B3 light
Take B8: in the assay with recombinant CD3 proteins [10], the Kd came out at 9.11 nM, the koff came to 0.00554 s⁻¹ and the kon was 609000 M⁻¹ s⁻¹.

B9: CD3 × CD33-BspAb80 (bispecific antibody)
chain 1: QVQLQESGPGLVKPSETLSLTCTVSGGSISSYYWSWIRQPAGKCLEWIGRIYTSGSTKYNPSLKSRVTMSVDTSKNQFSLKLISVTAADTAVYFCARERIRDLYFDYWGQGTLVTVSSGGGGSGGGGSGGGGSGGGGSNFMLTQPHSVSESPGKTVTISCTRTSGSIASNYVQWYQQRPGSSPTTVIYEDNQRPSGVPDRFSGSIDSSSNSASLTISGLKTEDEAAYYCQSYDRSNRVFGCGTKLTVLDKTHTCPPCPAPEFEGGPSVFLFPPKPKDTLMISRTPEVTCVVVDVSHEDPEVKFNWYVDGVEVHNAKTKPREEQYNSTYRVVSVLTVLHQDWLNGKEYKCKVSNKALPASIEKTISKAKGQPREPQVYTLPPCREEMTKNQVSLWCLVKGFYPSDIAVEWESNGQPENNYKTTPPVLDSDGSFFLYSKLTVDKSRWQQGNVFSCSVMHEALHNHYTQKSLSLSPGK
chain 2: B3 heavy
chain 3: B3 light
For the molecule B9, in the assay with recombinant CD3 proteins [11], the Kd is 6.06 nM, the koff stood at 0.00186 s⁻¹ and the kon was determined as 308000 M⁻¹ s⁻¹.
